Here are results for two substances from PMC7386315.

Data set [1] has as its system AtCdc5-DBD (Arabidopsis thaliana). Briefly: BLI.
The subject of data set [2] is MoCdc5-DBD (Magnaporthe oryzae P131). Nature of the data set: BLI.

In the case of MIR167a, the dissociation constant Kd in data set [1] is 8.98 10^-8 M; in data set [2], 5.17 10^-8 M.

Regarding U6 RNA, in data set [2], the Kd was 1.38 10^-8 M.
